In the assay the target is T1, BS69 coiled-coil MYND domain (BS69_(CC-MYND), amino acids 480-602) (human, UniProt Q15326 480-602).
T1 chain: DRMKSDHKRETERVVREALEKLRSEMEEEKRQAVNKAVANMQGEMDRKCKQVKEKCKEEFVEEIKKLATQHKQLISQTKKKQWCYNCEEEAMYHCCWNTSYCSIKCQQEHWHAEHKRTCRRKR
Kind of assay: ITC. (In ITC the heat of successive injections is recorded.)

One molecule from publication PMC6638984 (2019) can be followed below.

B1: type 1 EBNA2 polypeptide T1 EBNA2_(381-455) (domain or fragment)
chain: SMPELSPVLGLHQGQGAGDSPTPGPSNAAPVCRNSHTATPNVSPIHEPESHNSPEAPILFPDDWYPPSIDPADLD
Broadly, the Kd is the constant that tells how readily two partners part at equilibrium. As for B1, binding was characterised by a dissociation constant (Kd) of 730 nM.
